Source: article doi:10.1101/751974 (bioRxiv, 2019)

Key:
[1] = biological target: MBP-MCM8-9 complex, amylose bead-bound (human, UniProt Q9NXL9-1;Q9UJA3-1); test: pull-down
[2] = biological target: recombinant MCM8-9 complex, purified (human, UniProt Q9NXL9-1;Q9UJA3-1); test: native gel or EMSA
recombinant MCM8-9 complex, purified, sequence (Q9NXL9 whole entry, chain 1 of 2): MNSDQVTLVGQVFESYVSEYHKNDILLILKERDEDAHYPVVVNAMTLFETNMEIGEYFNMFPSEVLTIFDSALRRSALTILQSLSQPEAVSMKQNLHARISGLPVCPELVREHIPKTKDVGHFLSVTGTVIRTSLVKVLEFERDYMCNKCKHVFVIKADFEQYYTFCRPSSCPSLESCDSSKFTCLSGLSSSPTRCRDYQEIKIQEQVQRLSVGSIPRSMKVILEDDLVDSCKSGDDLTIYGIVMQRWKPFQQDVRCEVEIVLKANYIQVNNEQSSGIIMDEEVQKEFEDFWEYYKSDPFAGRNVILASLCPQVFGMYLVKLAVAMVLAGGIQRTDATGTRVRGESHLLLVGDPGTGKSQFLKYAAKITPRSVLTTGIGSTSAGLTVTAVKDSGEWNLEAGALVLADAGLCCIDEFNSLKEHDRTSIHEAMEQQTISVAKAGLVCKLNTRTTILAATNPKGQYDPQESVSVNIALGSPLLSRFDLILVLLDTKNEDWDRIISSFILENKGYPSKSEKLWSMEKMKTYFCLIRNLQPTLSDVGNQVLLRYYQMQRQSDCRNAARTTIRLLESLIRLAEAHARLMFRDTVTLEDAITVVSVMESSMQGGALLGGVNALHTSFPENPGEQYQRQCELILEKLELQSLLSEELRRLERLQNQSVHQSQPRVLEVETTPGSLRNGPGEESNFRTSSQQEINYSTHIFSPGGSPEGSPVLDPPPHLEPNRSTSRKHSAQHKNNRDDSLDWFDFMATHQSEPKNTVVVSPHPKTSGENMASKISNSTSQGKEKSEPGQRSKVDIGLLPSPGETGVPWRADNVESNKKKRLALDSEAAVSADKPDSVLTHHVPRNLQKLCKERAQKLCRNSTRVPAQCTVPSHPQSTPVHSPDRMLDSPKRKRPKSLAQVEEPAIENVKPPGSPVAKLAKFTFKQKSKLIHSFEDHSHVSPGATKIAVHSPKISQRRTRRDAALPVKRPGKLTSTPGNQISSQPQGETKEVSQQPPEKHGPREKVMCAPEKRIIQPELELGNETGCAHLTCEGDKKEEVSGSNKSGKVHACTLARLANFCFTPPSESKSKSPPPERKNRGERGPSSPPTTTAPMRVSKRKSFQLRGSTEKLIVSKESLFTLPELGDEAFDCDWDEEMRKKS
recombinant MCM8-9 complex, purified, sequence (Q9UJA3 whole entry, chain 2 of 2): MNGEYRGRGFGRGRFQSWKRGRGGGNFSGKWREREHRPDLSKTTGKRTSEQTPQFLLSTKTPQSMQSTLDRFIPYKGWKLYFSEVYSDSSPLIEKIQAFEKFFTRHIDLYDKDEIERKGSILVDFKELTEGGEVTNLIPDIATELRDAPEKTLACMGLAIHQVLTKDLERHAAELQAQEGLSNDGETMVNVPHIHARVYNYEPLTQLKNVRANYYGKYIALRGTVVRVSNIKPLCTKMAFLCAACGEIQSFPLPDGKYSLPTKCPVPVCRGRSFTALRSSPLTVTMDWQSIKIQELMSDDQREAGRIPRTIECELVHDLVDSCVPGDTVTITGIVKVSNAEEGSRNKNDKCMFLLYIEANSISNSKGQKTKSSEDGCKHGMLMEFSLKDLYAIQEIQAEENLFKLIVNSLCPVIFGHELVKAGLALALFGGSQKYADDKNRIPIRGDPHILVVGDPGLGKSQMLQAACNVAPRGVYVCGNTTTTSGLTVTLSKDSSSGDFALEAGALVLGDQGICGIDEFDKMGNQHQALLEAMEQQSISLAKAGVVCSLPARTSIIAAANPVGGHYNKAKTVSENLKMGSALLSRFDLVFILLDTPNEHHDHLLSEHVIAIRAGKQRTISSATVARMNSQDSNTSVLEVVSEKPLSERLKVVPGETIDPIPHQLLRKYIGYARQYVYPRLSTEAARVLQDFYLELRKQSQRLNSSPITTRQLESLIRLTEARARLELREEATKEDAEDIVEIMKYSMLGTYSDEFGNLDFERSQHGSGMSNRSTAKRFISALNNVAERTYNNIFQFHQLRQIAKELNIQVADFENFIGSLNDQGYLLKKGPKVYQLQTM

MBP-MCM8-9 complex, amylose bead-bound, sequence (Q9NXL9 whole entry, chain 1 of 2): as the sequence (Q9NXL9 whole entry, chain 1 of 2) above
MBP-MCM8-9 complex, amylose bead-bound, sequence (Q9UJA3 whole entry, chain 2 of 2): as the sequence (Q9UJA3 whole entry, chain 2 of 2) above

binding result [1]: binds
binding result [2]: binds
B1: MCM8IP-FLAG WT (natural protein)
chain: MACSLQKLFAVEEEFEDEDFLSAVEDAENRFTGSLPVNAGRLRPVSSRPQETVQAQSSRLLLLHPTAPSEALGLPDLDLCLPASSTPSADSRPSCIGAAPLRPVSTSSSWIGNQRRVTVTEVLRETARPQSSALHPLLTFESQQQQVGGFEGPEQDEFDKVLASMELEEPGMELECGVSSEAIPILPAQQREGSVLAKKARVVDLSGSCQKGPVPAIHKAGIMSAQDESLDPVIQCRTPRPPLRPGAVGHLPVPTALTVPTQQLHWEVCPQRSPVQALQPLQAARGTIQSSPQNRFPCQPFQSPSSWLSGKAHLPRPRTPNSSCSTPSRTSSGLFPRIPLQPQAPVSSIGSPVGTPKGPQGALQTPIVTNHLVQLVTAASRTPQQPTHPSTRAKTRRFPGPAGILPHQQSGRSLEDIMVSAPQTPTHGALAKFQTEIVASSQASVEEDFGRGPWLTMKSTLGLDERDPSCFLCTYSIVMVLRKAALKQLPRNKVPNMAVMIKSLTRSTMDASVVFKDPTGEMQGTVHRLLLETCQNELKPGSVLLLKQIGVFSPSLRNHYLNVTPNNLVHIYSPDSGDGSFLKPSQPFPKDSGSFQHDVAAKPEEGFRTAQNLEAEASPEEELPEADDLDGLLSELPEDFFCGTSS
